Data reported in the RNAGym collection of RNA variant scans (doi:10.7554/elife.80360).

B1: HDV Ribozyme (parent)
chain: GGCCGGCAUGGUCCCAGCCUCCUCGCUGGCGCCGGCUGGGCAACAUUCCGAGGGGACCGUCCCCUCGGUAAUGGCGAAUGGGACCCA

Variants of: B1
Test: self-cleavage, relative activity (ratio to wild type); higher = more cleavage; co-transcriptional

Variant | self-cleavage
GGCCGGCAUGGUCCCAGCCUCCUCGCUGGCGCCGGCUGGGCAACAUUCCGAGGGGACCGUCCCCUCGGUAAUGGGGCAUGGGACCCA [C75G A77C] | 0.128
GGCCGGCAUGGUCCCAGCCUCCUCGCUGGCGCCGGCUGGGCAACAUUCCGAGGGGACCGUCCCCUCGGUAAUGGGGUAUGGGACCCA [C75G A77U] | 0.213
GGCCGGCAUGGUCCCAGCCUCCUCGCUGGCGCCGGCUGGGCAACAUUCCGAGGGGACCGUCCCCUCGGUAAUGGCAAAUGGGACCCU [G76A A87U] | 1.08
GGCCGGCAUGGUCCCAGCCUCCUCGCUGGCGCCGGCUGGGCAACAUUCCGAGGGGACCGUCCCCUCGGUAAUGGGGAAUGGGGCCCA [C75G A83G] | 0.153
GGCCGGCAUGGUCCCAGCCUCCUCGCUGGCGCCGGCUGGGCAACAUUCCGAGGGGACCGUCCCCUCGGUAAUGGUGAAUGGGACCCG [C75U A87G] | 0.0917
GGCCGGCAUGGUCCCAGCCUCCUCGCUGGCGCCGGCUGGGCAACAUUCCGAGGGGACCGUCCCCUCGGUAAUGGUGAAUGGGACACA [C75U C85A] | 0.0959
GGCCGGCAUGGUCCCAGCCUCCUCGCUGGCGCCGGCUGGGCAACAUUCCGAGGGGACCGUCCCCUCGGUAAUGGUGAAUGGGACGCA [C75U C85G] | 0.122
GGCCGGCAUGGUCCCAGCCUCCUCGCUGGCGCCGGCUGGGCAACAUUCCGAGGGGACCGUCCCCUCGGUAAUGGUGAAUGGGACUCA [C75U C85U] | 0.138
GGCCGGCAUGGUCCCAGCCUCCUCGCUGGCGCCGGCUGGGCAACAUUCCGAGGGGACCGUCCCCUCGGUAAUGGCGCAUGGGACCGA [A77C C86G] | 0.302
GGCCGGCAUGGUCCCAGCCUCCUCGCUGGCGCCGGCUGGGCAACAUUCCGAGGGGACCGUCCCCUCGGUAAUGGCGCAUGGGACCUA [A77C C86U] | 0.519
GGCCGGCAUGGUCCCAGCCUCCUCGCUGGCGCCGGCUGGGCAACAUUCCGAGGGGACCGUCCCCUCGGUAAUGGCCAUUGGGACCCA [G76C A78U] | 0.339
GGCCGGCAUGGUCCCAGCCUCCUCGCUGGCGCCGGCUGGGCAACAUUCCGAGGGGACCGUCCCCUCGGUAAUGGAGAAUGGGACUCA [C75A C85U] | 0.256
GGCCGGCAUGGUCCCAGCCUCCUCGCUGGCGCCGGCUGGGCAACAUUCCGAGGGGACCGUCCCCUCGGUAAUGGCGGAUGGGGCCCA [A77G A83G] | 0.906
GGCCGGCAUGGUCCCAGCCUCCUCGCUGGCGCCGGCUGGGCAACAUUCCGAGGGGACCGUCCCCUCGGUAAUGGCAAACGGGACCCA [G76A U79C] | 0.964
GGCCGGCAUGGUCCCAGCCUCCUCGCUGGCGCCGGCUGGGCAACAUUCCGAGGGGACCGUCCCCUCGGUAAUGGCAAAUGGGACUCA [G76A C85U] | 1.11
GGCCGGCAUGGUCCCAGCCUCCUCGCUGGCGCCGGCUGGGCAACAUUCCGAGGGGACCGUCCCCUCGGUAAUGGCCAAUGGAACCCA [G76C G82A] | 0.432

Variant | self-cleavage
GGCCGGCAUGGUCCCAGCCUCCUCGCUGGCGCCGGCUGGGCAACAUUCCGAGGGGACCGUCCCCUCGGUAAUGGCCAAUGGCACCCA [G76C G82C] | 0.225
GGCCGGCAUGGUCCCAGCCUCCUCGCUGGCGCCGGCUGGGCAACAUUCCGAGGGGACCGUCCCCUCGGUAAUGGCUUAUGGGACCCA [G76U A77U] | 0.868
GGCCGGCAUGGUCCCAGCCUCCUCGCUGGCGCCGGCUGGGCAACAUUCCGAGGGGACCGUCCCCUCGGUAAUGGCAAAUGUGACCCA [G76A G81U] | 0.437
GGCCGGCAUGGUCCCAGCCUCCUCGCUGGCGCCGGCUGGGCAACAUUCCGAGGGGACCGUCCCCUCGGUAAUGGAGAAUGGGACCAA [C75A C86A] | 0.219
GGCCGGCAUGGUCCCAGCCUCCUCGCUGGCGCCGGCUGGGCAACAUUCCGAGGGGACCGUCCCCUCGGUAAUGGCUAAUGGUACCCA [G76U G82U] | 0.483
GGCCGGCAUGGUCCCAGCCUCCUCGCUGGCGCCGGCUGGGCAACAUUCCGAGGGGACCGUCCCCUCGGUAAUGGCAAAUGGGAGCCA [G76A C84G] | 0.939
GGCCGGCAUGGUCCCAGCCUCCUCGCUGGCGCCGGCUGGGCAACAUUCCGAGGGGACCGUCCCCUCGGUAAUGGCAAAUGGGAUCCA [G76A C84U] | 1.05
GGCCGGCAUGGUCCCAGCCUCCUCGCUGGCGCCGGCUGGGCAACAUUCCGAGGGGACCGUCCCCUCGGUAAUGGAAAAUGGGACCCA [C75A G76A] | 0.166
GGCCGGCAUGGUCCCAGCCUCCUCGCUGGCGCCGGCUGGGCAACAUUCCGAGGGGACCGUCCCCUCGGUAAUGGAUAAUGGGACCCA [C75A G76U] | 0.289
GGCCGGCAUGGUCCCAGCCUCCUCGCUGGCGCCGGCUGGGCAACAUUCCGAGGGGACCGUCCCCUCGGUAAUGGUGAAUGGAACCCA [C75U G82A] | 0.202
GGCCGGCAUGGUCCCAGCCUCCUCGCUGGCGCCGGCUGGGCAACAUUCCGAGGGGACCGUCCCCUCGGUAAUGGCGGAUGGGACCCG [A77G A87G] | 0.966
GGCCGGCAUGGUCCCAGCCUCCUCGCUGGCGCCGGCUGGGCAACAUUCCGAGGGGACCGUCCCCUCGGUAAUGGCGGAUGGGACCCC [A77G A87C] | 0.735
GGCCGGCAUGGUCCCAGCCUCCUCGCUGGCGCCGGCUGGGCAACAUUCCGAGGGGACCGUCCCCUCGGUAAUGGUGAAUGUGACCCA [C75U G81U] | 0.193
GGCCGGCAUGGUCCCAGCCUCCUCGCUGGCGCCGGCUGGGCAACAUUCCGAGGGGACCGUCCCCUCGGUAAUGGUGAAUGAGACCCA [C75U G81A] | 0.166
GGCCGGCAUGGUCCCAGCCUCCUCGCUGGCGCCGGCUGGGCAACAUUCCGAGGGGACCGUCCCCUCGGUAAUGGUGAAUAGGACCCA [C75U G80A] | 0.0573
GGCCGGCAUGGUCCCAGCCUCCUCGCUGGCGCCGGCUGGGCAACAUUCCGAGGGGACCGUCCCCUCGGUAAUGGCGCAUGGGCCCCA [A77C A83C] | 0.172
